# Measurements as given in US20230272099A1 (Chugai, published 2023).
# T1: human FcgRIIa type H extracellular domain (human, UniProt P12318 34-217)
# T1 construct: extracellular domain; also called hFcgRIIaH
# T1 sequence (looked up): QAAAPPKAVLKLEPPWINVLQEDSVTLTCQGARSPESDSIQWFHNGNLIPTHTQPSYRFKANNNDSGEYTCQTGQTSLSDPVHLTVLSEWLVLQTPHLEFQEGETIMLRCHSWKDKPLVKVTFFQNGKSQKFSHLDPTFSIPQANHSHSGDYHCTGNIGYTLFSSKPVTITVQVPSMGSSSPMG
# T2: human FcgRIIa type R extracellular domain (human, UniProt P12318 34-217)
# T2 construct: extracellular domain; also called hFcgRIIaR
# T2 sequence (looked up): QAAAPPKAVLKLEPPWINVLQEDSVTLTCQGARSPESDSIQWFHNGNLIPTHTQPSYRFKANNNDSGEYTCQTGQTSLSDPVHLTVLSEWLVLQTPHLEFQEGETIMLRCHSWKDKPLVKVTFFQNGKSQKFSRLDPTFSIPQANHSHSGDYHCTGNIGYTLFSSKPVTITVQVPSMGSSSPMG
# T3: human FcgRIIb extracellular domain (human, UniProt P31994 43-217)
# T3 construct: extracellular domain; also called hFcgRIIb
# T3 sequence (looked up): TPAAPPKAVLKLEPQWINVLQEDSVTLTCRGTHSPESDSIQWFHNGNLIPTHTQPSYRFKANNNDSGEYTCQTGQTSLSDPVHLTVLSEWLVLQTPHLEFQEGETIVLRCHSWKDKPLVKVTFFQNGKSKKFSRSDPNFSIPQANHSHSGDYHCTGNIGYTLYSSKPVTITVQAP
# Columns and labels:
# [1] = biological target: T4, human FcgRIa extracellular domain (human, UniProt P12314 16-292); test: SPR 25C
# T4 construct: extracellular domain; also called hFcgRIa
# Method: (§1) Biacore T200 (GE Healthcare) was used to evaluate the binding activity to the respective human Fcγ receptor (hereafter referred to as FcγR). Measurement was performed at 25° C. using 50 mM phosphate, 150 mM NaCl, 0.05 w/v %-P20, pH 7.4 as buffer. About 1000 RU of antibody was captured using a sensor chip immobilized with CaptureSelect™ Human Fab-lambda Kinetics Biotin Conjugate (Thermo Fisher Scientific) as a molecule for ligand capturing. Human FcγR was diluted to 8 nM for FcγRIa and 1000 nM for other FcγR in the measurement buffer, and it was interacted to the captured antibody. The binding activity of each antibody to FcγR was assessed by calculating the binding amount of FcγR (RU) per unit amount of antibody using Biacore T200 Evaluation Software 2.0.
# [2] = biological target: T1, human FcgRIIa type H extracellular …; test: SPR 25C
# Method: as §1
# [3] = biological target: T2, human FcgRIIa type R extracellular …; test: SPR 25C
# Method: as §1
# [4] = biological target: T3, human FcgRIIb extracellular domain; test: SPR 25C
# Method: as §1
# [5] = biological target: T5, human FcgRIIIa F158 extracellular domain (human, UniProt P08637 17-208); test: SPR 25C
# T5 construct: extracellular domain; also called hFcgRIIIaF
# Method: as §1
# [6] = biological target: T6, human FcgRIIIa V158 extracellular domain (human, UniProt P08637 17-208); test: SPR 25C
# T6 construct: extracellular domain; also called hFcgRIIIaV
# Method: as §1
# human FcRn = human FcRn (human, UniProt P55899 24-290; P61769 21-119); test: SPR 25C pH 6.0, steady state
# Method: Biacore T200 (GE Healthcare) was used to assess the binding activity to human FcRn. Measurement was performed at 25° C. using 50 mM phosphate, 150 mM NaCl, 0.05 w/v %-P20, pH 6.0 as buffer. Human FcRn proteins used for this determination were prepared by the procedure described in WO2010107110. About 400 RU of antibody was captured using a sensor chip immobilized with CaptureSelect™ Human Fab-lambda Kinetics Biotin Conjugate (Thermo Fisher Scientific) as a molecule for ligand capturing, followed by the binding of human FcRn diluted in measuring buffer. The activity of the respective antibodies to bind FcRn was assessed by calculating KD(mol/L) by the steady-state model using Biacore T200 Evaluation Software 2.0.
# Chain of human FcRn (P55899 24-290 limits assumed, chain 1 of 2): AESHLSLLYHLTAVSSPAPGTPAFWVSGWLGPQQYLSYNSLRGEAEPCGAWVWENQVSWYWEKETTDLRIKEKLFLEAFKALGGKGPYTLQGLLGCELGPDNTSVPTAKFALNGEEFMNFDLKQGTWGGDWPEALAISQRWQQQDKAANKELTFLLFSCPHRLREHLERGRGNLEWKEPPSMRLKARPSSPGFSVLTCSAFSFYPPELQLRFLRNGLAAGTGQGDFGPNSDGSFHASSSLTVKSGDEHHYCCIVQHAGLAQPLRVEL
# Chain of human FcRn (P61769 21-119 limits assumed, chain 2 of 2): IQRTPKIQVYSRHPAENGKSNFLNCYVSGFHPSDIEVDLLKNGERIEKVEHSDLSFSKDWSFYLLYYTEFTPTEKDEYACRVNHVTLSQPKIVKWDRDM
# T4 sequence (P12314 16-292): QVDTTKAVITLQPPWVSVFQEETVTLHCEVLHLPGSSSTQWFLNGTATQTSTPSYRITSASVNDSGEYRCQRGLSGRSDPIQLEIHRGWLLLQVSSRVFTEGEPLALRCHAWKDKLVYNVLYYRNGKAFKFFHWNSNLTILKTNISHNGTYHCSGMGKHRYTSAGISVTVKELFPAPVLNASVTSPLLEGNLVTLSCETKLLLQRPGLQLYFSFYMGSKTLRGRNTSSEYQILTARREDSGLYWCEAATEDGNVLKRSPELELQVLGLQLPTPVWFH
# T5 sequence (P08637 17-208): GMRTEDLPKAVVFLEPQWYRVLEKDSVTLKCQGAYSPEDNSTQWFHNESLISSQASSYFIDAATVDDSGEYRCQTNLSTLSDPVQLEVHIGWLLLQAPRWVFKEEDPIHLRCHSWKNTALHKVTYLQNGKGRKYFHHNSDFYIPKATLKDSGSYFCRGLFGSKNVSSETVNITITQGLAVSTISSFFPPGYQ
# T6 sequence (P08637 17-208 F176V): as the sequence (P08637 17-208) above, with F160V counted along it
Binder,binding per 1RU antibody [1] [RU],relative binding (A375-G1T3/B167-Lamlib=1) [1],binding per 1RU antibody [2] [RU],relative binding (A375-G1T3/B167-Lamlib=1) [2],binding per 1RU antibody [3] [RU],relative binding (A375-G1T3/B167-Lamlib=1) [3],binding per 1RU antibody [4] [RU],relative binding (A375-G1T3/B167-Lamlib=1) [4],binding per 1RU antibody [5] [RU],relative binding (A375-G1T3/B167-Lamlib=1) [5],binding per 1RU antibody [6] [RU],relative binding (A375-G1T3/B167-Lamlib=1) [6],Kd (human FcRn) [nM]
"A375-SCF030/B167-Lamlib (antibody, human IgG1, lambda) heavy: EVQLVESGGGLVKPGGSLRLSCAASGFTFSTFTMNWVRQAPGKGLEWVSSISSKSTYIEYADSFKVRFTISRDNAKNSLYLQMNSLRAEDTAVYYCARYGAKNFLNWVFDYWGQGTLVTVSSASTKGPSVFPLAPSSKSTSGGTAALGCLVKDYFPEPVTVSWNSGALTSGVHTFPAVLQSSGLYSLSSVVTVPSSSLGTQTYICNVNHKPSNTKVDKKVEPKSCDKTHTCPPCPAPELWNGPSVFLFPPKPKDTLMISRTPEVTCVVVDVSDEDPEVKFNWYVDGVEVHNAKTKPREELYNSTYRVVSVLTVLHRDWLNGKEYKCKVSNTALPKPIEKTISKAKGQRREPQVYTLPPSREEMTKNQVSLTCLVKGFYPSDIAVEWESNGQPENNYKTTPPVLDSDGSFFLYSKLTVDKSRWQQGNVFSCSVMHEALHNHYTQKSLSLSP light: QSALTQPPSASGSPGQTVTISCTGTRYDVGYYEYVSWYQQHPGKAPKLMIYETSKRLSGVPDRFSGSKSGNTASLTVSGLQAEDEADYYCSSYRYEHQVSFGGGTKLTVLGQPKAAPSVTLFPPSSEELQANKATLVCLISDFYPGAVTVAWKADSSPVKAGVETTTPSKQSNNKYAASSYLSLTPEQWKSHRSYSCQVTHEGSTVEKTVAPTECS",0.002,0.02,0.0533,0.94,0.0532,1.15,0.0532,4.85,0.0017,0.08,0.002,0.03,863
"A375-SCF032/B167-Lamlib (antibody, human IgG1, lambda) heavy: EVQLVESGGGLVKPGGSLRLSCAASGFTFSTFTMNWVRQAPGKGLEWVSSISSKSTYIEYADSFKVRFTISRDNAKNSLYLQMNSLRAEDTAVYYCARYGAKNFLNWVFDYWGQGTLVTVSSASTKGPSVFPLAPSSKSTSGGTAALGCLVKDYFPEPVTVSWNSGALTSGVHTFPAVLQSSGLYSLSSVVTVPSSSLGTQTYICNVNHKPSNTKVDKKVEPKSCDKTHTCPPCPAPEYLGGDSVFLFPPKPKDVLMISRTPEVTCVVIDVSHEDPEVKFNWYVDGVEVHNAKTKPREEQYNSTYRVVSVLPVLHRDWLNGKEYKCKVSNKALPKPIEKTISKAKGQRREPQVYTLPPSREEMTKNQVSLTCLVKGFYPSDIAVEWESNGQPENNYKTTPPVLDSDGSFFLYSKLTVDKSRWQQGNVFSCSVMHEALHNHYTQKSLSLSP light: QSALTQPPSASGSPGQTVTISCTGTRYDVGYYEYVSWYQQHPGKAPKLMIYETSKRLSGVPDRFSGSKSGNTASLTVSGLQAEDEADYYCSSYRYEHQVSFGGGTKLTVLGQPKAAPSVTLFPPSSEELQANKATLVCLISDFYPGAVTVAWKADSSPVKAGVETTTPSKQSNNKYAASSYLSLTPEQWKSHRSYSCQVTHEGSTVEKTVAPTECS",0.0049,0.06,0.003,0.05,-0.0004,-0.01,0.0782,7.14,-0.0007,-0.03,-0.0007,-0.01,966
"A375-SCF039/B167-Lamlib (antibody, human IgG1, lambda) heavy: EVQLVESGGGLVKPGGSLRLSCAASGFTFSTFTMNWVRQAPGKGLEWVSSISSKSTYIEYADSFKVRFTISRDNAKNSLYLQMNSLRAEDTAVYYCARYGAKNFLNWVFDYWGQGTLVTVSSASTKGPSVFPLAPSSKSTSGGTAALGCLVKDYFPEPVTVSWNSGALTSGVHTFPAVLQSSGLYSLSSVVTVPSSSLGTQTYICNVNHKPSNTKVDKKVEPKSCDKTHTCPPCPAPELWNGPSVFLFPPKPKDTLMISRTPEVTCVVVDVSDEDPEVKFNWYVDGVEVHNAKTKPREELYNSTYRVVSVLTVLHQDWLNGKEYKCKVSNTALPKPIEKTISKAKGQRREPQVYTLPPSREEMTKNQVSLTCLVKGFYPSDIAVEWESNGQPENNYKTTPPVLDSDGSFFLYSKLTVDKSRWQQGNVFSCSVMHEALHNHYTQKSLSLSP light: QSALTQPPSASGSPGQTVTISCTGTRYDVGYYEYVSWYQQHPGKAPKLMIYETSKRLSGVPDRFSGSKSGNTASLTVSGLQAEDEADYYCSSYRYEHQVSFGGGTKLTVLGQPKAAPSVTLFPPSSEELQANKATLVCLISDFYPGAVTVAWKADSSPVKAGVETTTPSKQSNNKYAASSYLSLTPEQWKSHRSYSCQVTHEGSTVEKTVAPTECS",0.0018,0.02,0.0535,0.94,0.0542,1.17,0.0531,4.85,0.0008,0.04,0.0013,0.02,1090
"A375-SCF033/B167-Lamlib (antibody, human IgG1, lambda) heavy: EVQLVESGGGLVKPGGSLRLSCAASGFTFSTFTMNWVRQAPGKGLEWVSSISSKSTYIEYADSFKVRFTISRDNAKNSLYLQMNSLRAEDTAVYYCARYGAKNFLNWVFDYWGQGTLVTVSSASTKGPSVFPLAPSSKSTSGGTAALGCLVKDYFPEPVTVSWNSGALTSGVHTFPAVLQSSGLYSLSSVVTVPSSSLGTQTYICNVNHKPSNTKVDKKVEPKSCDKTHTCPPCPAPEYLGDDSVFLFPPKPKDVLMISRTPEVTCVVVDVSHEDPEVKFNWYVDGVEVHNAKTKPREEQYNSTYRVVSVLPVLHRDWLNGKEYKCKVSNKALPKPIEKTISKAKGQRREPQVYTLPPSREEMTKNQVSLTCLVKGFYPSDIAVEWESNGQPENNYKTTPPVLDSDGSFFLYSKLTVDKSRWQQGNVFSCSVMHEALHNHYTQKSLSLSP light: QSALTQPPSASGSPGQTVTISCTGTRYDVGYYEYVSWYQQHPGKAPKLMIYETSKRLSGVPDRFSGSKSGNTASLTVSGLQAEDEADYYCSSYRYEHQVSFGGGTKLTVLGQPKAAPSVTLFPPSSEELQANKATLVCLISDFYPGAVTVAWKADSSPVKAGVETTTPSKQSNNKYAASSYLSLTPEQWKSHRSYSCQVTHEGSTVEKTVAPTECS",0.0033,0.04,0.0103,0.18,0.0255,0.55,0.0979,8.94,0,0,0.0002,0,874
